Three substances from patent US20130326736A1 can be followed below.

The target in experiment [1] is CORYNE (CRN; At5g13290) (Arabidopsis) (UniProt Q9LYU7). Description: cell-based or functional assay.
The target of experiment [2] is CLAVATA2 (CLV2; At1g65380) (Arabidopsis) (UniProt O80809). Description: cell-based or functional assay.
Chain of UniProt O80809 (O80809 26-720): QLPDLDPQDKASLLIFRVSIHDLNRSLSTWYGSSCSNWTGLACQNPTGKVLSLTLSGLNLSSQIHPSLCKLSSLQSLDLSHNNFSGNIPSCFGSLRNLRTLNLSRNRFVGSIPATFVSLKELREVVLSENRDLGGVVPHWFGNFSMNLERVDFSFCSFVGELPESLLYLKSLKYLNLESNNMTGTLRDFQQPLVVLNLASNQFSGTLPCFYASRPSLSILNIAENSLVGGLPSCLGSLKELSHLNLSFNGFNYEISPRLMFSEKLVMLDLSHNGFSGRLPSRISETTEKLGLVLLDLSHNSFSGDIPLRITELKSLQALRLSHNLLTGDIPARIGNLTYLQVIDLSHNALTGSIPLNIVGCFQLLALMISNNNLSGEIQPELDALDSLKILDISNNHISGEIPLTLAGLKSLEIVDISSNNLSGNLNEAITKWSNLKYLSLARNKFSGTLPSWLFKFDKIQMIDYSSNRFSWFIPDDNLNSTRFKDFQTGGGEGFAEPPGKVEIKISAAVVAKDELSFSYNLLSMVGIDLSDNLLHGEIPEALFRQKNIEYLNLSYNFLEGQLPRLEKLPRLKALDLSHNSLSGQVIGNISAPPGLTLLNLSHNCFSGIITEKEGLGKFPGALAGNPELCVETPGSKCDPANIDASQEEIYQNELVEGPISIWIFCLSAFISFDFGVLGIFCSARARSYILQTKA

Chain of UniProt Q9LYU7 (Q9LYU7 34-401): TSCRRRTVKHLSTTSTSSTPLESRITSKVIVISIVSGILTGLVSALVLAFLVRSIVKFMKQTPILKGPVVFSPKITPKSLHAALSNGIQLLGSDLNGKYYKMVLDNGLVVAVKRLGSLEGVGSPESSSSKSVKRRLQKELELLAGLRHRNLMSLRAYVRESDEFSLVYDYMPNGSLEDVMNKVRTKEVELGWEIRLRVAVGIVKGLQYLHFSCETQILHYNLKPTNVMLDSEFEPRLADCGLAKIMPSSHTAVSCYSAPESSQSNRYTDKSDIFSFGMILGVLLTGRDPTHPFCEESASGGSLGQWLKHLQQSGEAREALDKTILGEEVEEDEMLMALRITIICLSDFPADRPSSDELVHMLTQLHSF

“HgCLE2ΔSP (soybean cyst nematode CLE protein, overexpressed in Arabidopsis) (ligand)” came in with a wus-like (%) T1 shoot phenotypes, overexpression in crn-1 in experiment [1] of 0%. In addition, the wus-like (%) T1 shoot phenotypes, overexpression in clv2-1 in experiment [2] was 0%.
“HsCLE1 (beet cyst nematode CLE protein, overexpressed in Arabidopsis) (ligand)” displayed a wus-like (%) T1 shoot phenotypes, overexpression in crn-1 in experiment [1] of 0%. Moreover, the wus-like (%) T1 shoot phenotypes, overexpression in clv2-1 in experiment [2] was 0%.
As to “HsCLE2 (beet cyst nematode CLE protein, overexpressed in Arabidopsis) (ligand)”, the wus-like (%) T1 shoot phenotypes, overexpression in crn-1 in experiment [1] came to 0%. The substance further returned a wus-like (%) T1 shoot phenotypes, overexpression in clv2-1 in experiment [2] of 0%.
